Substrate in data set [1]: NCCO
Put plainly: kinetic analysis of recombinant enzyme (substrate saturation). Format: biochemical, P. falciparum. The conditions noted are these: Etn varied, ATP constant, pH 7.8. How it is done: (§1) A continuous spectrophotometric 96-well plate assay was established for CK and EK activity based on an assay described. […] The reaction was initiated by addition of enzyme or substrate, as appropriate, and the rate of reaction was monitored by following the decrease in absorbance at 341 nm for 10 min at room temperature using a Thermo Multiska spectrophotometer. Experiments were carried out to ensure that coupling enzymes were not rate-limiting under any of the conditions used and control experiments lacking substrates and/or enzyme were carried out to correct for any background rate.
(§2) One substrate was held constant at the concentration specified above while the second substrate was varied. Any ATPase activity was controlled for and subtracted from the rates (PfEK only). Curves were plotted and Km and Vmax values estimated using Grafit 5 (Erithacus Software Ltd).

Substrate in data set [2]: Nc1ncnc2c1ncn2[C@@H]1O[C@H](COP(=O)(O)OP(=O)(O)OP(=O)(O)O)[C@@H](O)[C@H]1O
The data set is described as above. Format: biochemical, P. falciparum. The conditions noted are these: ATP varied, pH 7.8. How it is done:
as §1, §2

Substrate in data set [3]: C[N+](C)(C)CCO
Put plainly: purified protein, by the assay type. The conditions noted are these: other: PfCK, Cho varied, ATP constant; pH 7.8.

B1: PfCK (Plasmodium falciparum 3D7) (protein)
chain: MESKICDPIGLDKNKFRKVEEENEENSKIVENGQMTYNDDLEMFTTIQLNQEIDIRKNPFPLHMINQKNDIPLCAQEFSKLTDPLYIKKICLEKVHDWSRCNEDDVCVNQILSGLTNQLFEVSIKEDTAIEYRITRRHVLFRIYGKDVDALYNPLSEFEVYKTMSKYRIAPLLLNTFDGGRIEEWLYGDPLSIDDLKNKSILVGIANVLGKFHTLSRKRHLPEHWDKTPCVFKMMDRWRLAVSNYKNLDKVTLDINKYIQESHKFLKFIKIYTQIENIANDIVFCHNDLQENNIMNTNKCLRLIDFEYSGYNFLSADIANFFIETTIDYSYNAYPFFIINKKNYISYESRILFVTTYLSKYLDDSTAASDQDIIDQFLEAIEVQALGLHLIWAFWSIIRGYQTKSYNEFDFFLYAKERLKMYDEQKQYLMSKNIIKDYDD
notes: made in house
For the protein B1, in data set [1] (other: PfCK), the Michaelis constant (Km) is 3300 ± 300 µM, the Vmax came to 1.7 µmol/min/mg, the kcat amounted to 1.5 s⁻¹ and the kcat/Km came out at 450 M⁻¹ s⁻¹. The Km in data set [2] (other: PfCK) was 130 ± 10 µM. For the same protein, in data set [3], the Km was 210 ± 30 µM, the maximum rate (Vmax) is 3.3 µmol/min/mg, the turnover number (kcat) is 2.9 s⁻¹ and the specificity constant (kcat/Km) came out at 13800 M⁻¹ s⁻¹.

B2: PfEK (Plasmodium falciparum 3D7) (protein)
chain: EYQLREIDESEKEITQQRKKNSVTTKNFDNLSNSNSQITEMTNEQGVIPLREKDLTINVGDNRNLKVEEFMTNFISNVFENKNALFLYCKYVLLFYGKELLNENNVESLNFEIIKGGITNILVKVEDNIHQNKYLIRLYGPKTSEIINREREKLISNILCDKNISKKIYVFFPNGRIEEFKDGYALSREDIKNKDFQKEIAENLRILHDIQLDDTIYKKLQALQNIQGNRSSFLWSTLWKYFNTLKEERQKKYSFNPKAYILKLIDFDMLESIITEIQELCCKKNSPVVLCHCDLLSSNIIKTEGSSISFIDFEYSCPMERAYDIANHFNEYAGFNCEWDLTPNRSEEYHFIKHYLKTDDEQLINQLIDEIQPFYVCSHIVWGLWALLQGLHSVIDFDFINYGMTRLTAAFSVKFRSKL
Consider B2, for which, in data set [1] (other: PfEK), the Km stood at 80 ± 20 µM, the maximal velocity (Vmax) is 0.03 µmol/min/mg, the kcat came out at 0.025 s⁻¹ and the catalytic efficiency (kcat/Km) worked out at 310 M⁻¹ s⁻¹. The Michaelis constant (Km) in data set [2] (other: PfEK) turned out to be 70 ± 30 µM.

The record behind these values is article PMC5018819 (Scientific Reports, 2016).
